From patent US20180037644A1 (Pfizer, published 2018)
Substitutions are numbered along the chain they refer to. Like-named read-outs stand apart in the source and are kept apart here. One block for each binder: values may come before it.

How the values were obtained:
human IL-33 (mm2) [1] = biological target: T1, human IL-33 (mm2) (human, UniProt O95760 112-270); experiment: cell-based or functional assay
T1 chain: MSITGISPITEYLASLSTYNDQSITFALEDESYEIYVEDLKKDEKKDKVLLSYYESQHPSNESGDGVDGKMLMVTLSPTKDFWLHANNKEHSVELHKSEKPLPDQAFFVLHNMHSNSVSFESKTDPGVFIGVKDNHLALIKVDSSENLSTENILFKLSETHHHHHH

[2] = biological target: T2, cynomolgus monkey IL-33 (cys mut) (cynomolgus monkey); experiment: cell-based or functional assay
T2 chain: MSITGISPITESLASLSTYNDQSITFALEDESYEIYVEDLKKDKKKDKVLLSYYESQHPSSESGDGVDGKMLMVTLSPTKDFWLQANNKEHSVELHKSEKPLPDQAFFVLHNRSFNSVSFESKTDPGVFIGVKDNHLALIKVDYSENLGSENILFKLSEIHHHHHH

human IL-33 (mm2) [3] = biological target: T1, human IL-33 (mm2); experiment: cell-based or functional assay
human IL-33 WT (R&D) [4] = biological target: T3, human IL-33 WT (R&D) (human, UniProt O95760 112-270); experiment: cell-based or functional assay
T3 sequence: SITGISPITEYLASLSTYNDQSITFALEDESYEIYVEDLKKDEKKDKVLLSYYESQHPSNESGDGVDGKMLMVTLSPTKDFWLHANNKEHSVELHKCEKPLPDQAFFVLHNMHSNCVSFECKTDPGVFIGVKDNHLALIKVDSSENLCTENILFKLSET

[5] = biological target: T2, cynomolgus monkey IL-33 (cys mut); experiment: cell-based or functional assay
human IL-33 (mm2) [6] = biological target: T1, human IL-33 (mm2); experiment: cell-based or functional assay
human IL-33 WT (R&D) [7] = biological target: T3, human IL-33 WT (R&D); experiment: cell-based or functional assay; remark: listed apart in the source
[8] = biological target: T2, cynomolgus monkey IL-33 (cys mut); experiment: cell-based or functional assay
human IL-33 (mm2) [9] = biological target: T1, human IL-33 (mm2); experiment: cell-based or functional assay
human IL-33 (mm2) [10] = biological target: T1, human IL-33 (mm2); experiment: cell-based or functional assay
human IL-33 WT (R&D) [11] = biological target: T3, human IL-33 WT (R&D); experiment: cell-based or functional assay; remark: listed apart in the source
human IL-33 (mm2) [12] = biological target: T1, human IL-33 (mm2); experiment: cell-based or functional assay
human IL-33 WT (R&D) [13] = biological target: T3, human IL-33 WT (R&D); experiment: cell-based or functional assay; remark: listed apart in the source
[14] = biological target: T2, cynomolgus monkey IL-33 (cys mut); experiment: cell-based or functional assay
[15] = biological target: T4, wild-type cynomolgus monkey IL-33 (cynomolgus monkey); experiment: cell-based or functional assay
T4 chain: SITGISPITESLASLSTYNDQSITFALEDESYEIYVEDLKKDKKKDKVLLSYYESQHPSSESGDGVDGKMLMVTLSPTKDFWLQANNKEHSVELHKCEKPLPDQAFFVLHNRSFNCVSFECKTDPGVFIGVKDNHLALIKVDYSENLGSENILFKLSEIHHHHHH

[16] = biological target: T5, human IL-33 WT, reduced with DTT (human, UniProt O95760 112-270); experiment: SPR, IL-33 amine-coupled to CM5, rat Fab in solution, 37 C
T5 construct: Wild-type cysteines, FLAG tag in the entry; reduced with 3 mM DTT before use; also called huIL33 wt; hu IL-33 (WT + DTT)
T5 sequence: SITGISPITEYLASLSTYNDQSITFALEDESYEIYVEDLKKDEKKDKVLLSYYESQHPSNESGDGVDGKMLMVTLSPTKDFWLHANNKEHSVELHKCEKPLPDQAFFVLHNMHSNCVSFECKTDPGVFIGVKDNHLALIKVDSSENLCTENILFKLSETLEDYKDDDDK
Protocol: Parallel studies were performed with non-reduced IL-33 and with IL-33 samples that had been reduced with 3 mM DTT for 3 hr. at room temperature prior to immobilization. […] Flow cell 1 was activated and blocked for use as a reference flow cell. […] Dissociation was monitored for 3600 seconds. Biacore kinetic assays were conducted at 37° C. at a collection rate of 1 Hz on a Biacore T200 instrument (GE Healthcare). Rate constants and affinities were determined by fitting the resulting sensorgram data to a 1:1 model in Biacore T200 Evaluation software version 1.0 (GE Healthcare).

human IL-33 (mm2) [17] = biological target: T1, human IL-33 (mm2); experiment: cell-based or functional assay
[18] = biological target: T2, cynomolgus monkey IL-33 (cys mut); experiment: cell-based or functional assay
[19] = biological target: T4, wild-type cynomolgus monkey IL-33; experiment: SPR, Experiment 2; reference: human IL-33 (WT + DTT)
Protocol: (§1) Biacore kinetic assays were conducted at 37° C. at a collection rate of 1 Hz on a Biacore T200 instrument (GE Healthcare). Reduced and non-reduced wild-type human IL-33 and reduced wild-type cynomolgus monkey IL-33 were covalently coupled to a CM5 sensor chip (catalogue number BR100530, GE Healthcare) using an amine coupling kit (catalogue number BR100050, GE Healthcare) according to the manufacturer's protocol. Flow cell 1 was activated and blocked for use as a reference flow cell. […] The dilution and running buffer was HBS-EP+(10 mM HEPES pH 7.4, 0.15M NaCl, 3 mM EDTA, 0.05% P-20). Rate constants and affinities were determined by fitting the resulting sensorgram data to a 1:1 model in Biacore T200 Evaluation software version 1.0 (GE Healthcare). […] Kinetic properties of the bivalent IgG cannot be directly compared to those of monovalent Fab fragments and are not presented here.

[20] = biological target: T5, human IL-33 WT, reduced with DTT; experiment: SPR, IL-33 amine-coupled to CM5, Fab in solution, 37 C, Experiment 2
Protocol: as §1

[21] = biological target: T4, wild-type cynomolgus monkey IL-33; experiment: as above
Protocol: as §1

IC50, HEK293 ST2 NFkB (human IL-33 (mm2) [6]): 130 pM
IC50, HEK293 ST2 NFkB (human IL-33 WT (R&D) [7]): 685 pM
IC50, HEK293 ST2 NFkB [8]: 162 pM
IC50, IFN-γ production in human PBMC (human IL-33 (mm2) [9]): 1.1 pM
IC50, human whole blood (human IL-33 (mm2) [10]): 13 pM
IC50, human whole blood (human IL-33 WT (R&D) [11]): 451 pM
IC50, HEK293 ST2 NFkB (human IL-33 (mm2) [12]): 37 pM
IC50, HEK293 ST2 NFkB (DTT-pretreated IL-33) (human IL-33 WT (R&D) [13]): 250 pM
Cynomolgus monkey:human IC50 ratio: cysteine mutant IL-33 [14]: 1
IC50, HEK293 ST2 NFkB [14]: 36 pM
Cynomolgus monkey:human IC50 ratio: wild-type IL-33 [15]: 6.2
IC50, HEK293 ST2 NFkB (DTT-pretreated IL-33) [15]: 1560 pM
B2: IL33-167LS (antibody, human IgG1, kappa)
heavy: EVQLVESGGGLVQPGGSLRLSCAASGFTFSSYWMYWVRQAPGKGLEWVASITPNAGEDYYPDSVKGRFTISRDNAKNSLYLQMNSLRAEDTAVYYCARGHYYYTSYSLGYWGQGTLVTVSSASTKGPSVFPLAPSSKSTSGGTAALGCLVKDYFPEPVTVSWNSGALTSGVHTFPAVLQSSGLYSLSSVVTVPSSSLGTQTYICNVNHKPSNTKVDKKVEPKSCDKTHTCPPCPAPEAAGAPSVFLFPPKPKDTLMISRTPEVTCVVVDVSHEDPEVKFNWYVDGVEVHNAKTKPREEQYNSTYRVVSVLTVLHQDWLNGKEYKCKVSNKALPAPIEKTISKAKGQPREPQVYTLPPSREEMTKNQVSLTCLVKGFYPSDIAVEWESNGQPENNYKTTPPVLDSDGSFFLYSKLTVDKSRWQQGNVFSCSVLHEALHSHYTQKSLSLSPG
light: DIQMTQSPSSLSASVGDRVTITCKASQNINKHLDWYQQKPGKAPKLLIYFTNNLQTGVPSRFSGSGSGTDFTLTISSLQPEDFATYYCFQYNNGWTFGGGTKVEIKRTVAAPSVFIFPPSDEQLKSGTASVVCLLNNFYPREAKVQWKVDNALQSGNSQESVTEQDSKDSTYSLSSTLTLSKADYEKHKVYACEVTHQGLSSPVTKSFNRGEC

Kd [16]: 44.2 pM
koff [16]: 0.000116 s⁻¹
kon [16]: 2.55e+06 M⁻¹ s⁻¹
B3: rat 7E8 Fab (Fab, V domains shown)
VH: EVQLVETGGGLVQPGRSLKLSCKTSGFTFSSYWMYWIRQAPGKGLEWVSSITPNGGNTYYPDSVKGRFTISRDNAENTIYLQMSSLRSEDTATYFCAKGHYYYTSYSLGYWGQGSLVTVSS
VL: EIQMTQSPSVLSASVGDRVTLSCKASQNINKHLDWYQQKLGEAPKLLIYFTNNLQTGIPSRFSGSGSGTDCTLTINSLQPGDVATYFCFQYNNGWTFGGGTKLELD
notes: Fab of the parental rat antibody; also called parental rat Fab 7E8

IC50, whole blood IFNγ (human IL-33 (mm2) [3]): 106 pM
IC50, HEK293 ST2 NFkB WT IL-33 (human IL-33 WT (R&D) [4]): 155 pM
IC50, HEK293 ST2 NFkB cyno IL-33 [5]: 52 pM
B6: IL33-117 (antibody, human IgG1, kappa, V domains shown)
VH: EVQLVESGGGLVQPGGSLRLSCAASGFTFSSYWMYWVRQAPGKGLEWVASITPNGGEDYYPDSVKGRFTISRDNAKNSLYLQMNSLRAEDTAVYYCARGHYYYTSYSLGYWGQGTLVTVSS
VL: DIQMTQSPSSLSASVGDRVTITCKASQNINKHLDWYQQKPGKAPKLLIYFTNNLQTGVPSRFSGSGSGTDFTLTISSLQPEDFATYYCFQYNNGWTFGGGTKVEIKR

IC50, HEK293 ST2 NFkB mm2 (human IL-33 (mm2) [3]): 28 pM
IC50, whole blood IFNγ (human IL-33 (mm2) [3]): 104 pM
IC50, HEK293 ST2 NFkB WT IL-33 (human IL-33 WT (R&D) [4]): 178 pM
IC50, HEK293 ST2 NFkB cyno IL-33 [5]: 70 pM
B7: IL33-103 (antibody, human IgG1, kappa, V domains shown)
VH: B6 VH with S50A, D58T
VL: B6 VL

Ratio of cynomolgus monkey KD/human KD [19]: 57.8
Kd [20]: 28 pM
koff [20]: 8.07e-05 s⁻¹
kon [20]: 2.89e+06 M⁻¹ s⁻¹
Kd [21]: 1620 pM
koff [21]: 0.0038 s⁻¹
kon [21]: 2.58e+06 M⁻¹ s⁻¹
B8: IL33-265 Fab (Fab, V domains shown)
VH: EVQLVESGGNLEQPGGSLRLSCTASGFTFSRSAMNWVRRAPGKGLEWVSGISGSGGRTYYADSVKGRFTISRDNSKNTLYLQMNSLSAEDTAAYYCAKDSYTTSWYGGMDVWGHGTTVTVSS
VL: DIQMTQSPSSVSASVGDRVTITCRASQGIFSWLAWYQQKPGKAPKLLIYAASSLQSGVPSRFSGSGSGTDFTLTISSLQPEDFAIYYCQQANSVPITFGQGTRLEIKR
notes: Fab fragment

Continued, binder first:

B1: IL33-10 (antibody, human IgG1, kappa)
heavy: not shown
light: B2 light
IC50, HEK293 ST2 NFkB (human IL-33 (mm2) [1]): 17 pM
IC50, HEK293 ST2 NFkB [2]: 132 pM
IC50, HEK293 ST2 NFkB mm2 (human IL-33 (mm2) [3]): 31 pM
IC50, whole blood IFNγ (human IL-33 (mm2) [3]): 121 pM
IC50, HEK293 ST2 NFkB WT IL-33 (human IL-33 WT (R&D) [4]): 117 pM
IC50, HEK293 ST2 NFkB cyno IL-33 [5]: 59 pM

B4: IL33-12 (antibody, human IgG1, kappa, V domains shown)
VH: B6 VH with T52N, P53N, N54D, E57N, D58T, P61L
VL: B6 VL
IC50, HEK293 ST2 NFkB (human IL-33 (mm2) [1]): 144 pM
IC50, HEK293 ST2 NFkB [2]: 3460 pM
IC50, HEK293 ST2 NFkB (human IL-33 (mm2) [17]): 140 pM
IC50, HEK293 ST2 NFkB [18]: 943 pM

B5: IL33-45 (antibody, human IgG1, kappa, V domains shown)
VH: B6 VH with N54D, E57N, D58T
VL: B6 VL
IC50, HEK293 ST2 NFkB (human IL-33 (mm2) [17]): 325 pM
IC50, HEK293 ST2 NFkB [18]: 535 pM
